Assay: in vivo
Conditions: SCID, mouse, in vivo, iv, 4 uCi, total radioactivity; for tissue uptake at […] / tissue uptake at 1 h / tissue uptake at 48 h / tissue uptake at 0.5 h / tissue uptake at 4 h / tissue uptake at 24 h / tissue uptake at 72 h: Avg % ID/gm

Question: With `CSCC[C@H](NC(=O)[C@H](CC(C)C)NC(=O)[C@H](Cc1cnc[nH]1)NC(=O)CNC(=O)[C@@H](NC(=O)[C@H](C)NC(=O)[C@H](Cc1c[nH]c2ccccc12)NC(=O)[C@H](CCC(N)=O)NC(=O)CCCCCCCNC(=O)CN1CCN(CC(=O)O)CCN(CC(=O)O)CCN(CC(=O)O)CC1)C(C)C)C(N)=O` [111In-DOTA-8-Aoc-BBN[7-14]NH2, metal not drawn] as the molecule, how does the tissue uptake dose at 0.5 h (Avg % ID, S. Intestine, 30 min) read?
Answer: The tissue uptake dose at 0.5 h was 6.24 ± 0.46 %ID.

Question: What about the tissue uptake dose at 1 h (Avg % ID, S. Intestine, 1 hr) of the same molecule?
Answer: The tissue uptake dose at 1 h was 7.45 ± 1.62 %ID.

Question: What about the tissue uptake dose at 4 h (Avg % ID, S. Intestine, 4 hrs) of the same molecule?
Answer: Its tissue uptake dose at 4 h is 2.43 ± 0.56 %ID.

Question: And the tissue uptake dose at 24 h (Avg % ID, S. Intestine, 24 hrs)?
Answer: The tissue uptake dose at 24 h was 0.98 ± 0.26 %ID.

Question: What about the tissue uptake dose at 48 h (Avg % ID, S. Intestine, 48 hrs) of the same molecule?
Answer: Its tissue uptake dose at 48 h is 0.32 ± 0.07 %ID.

Question: What about the tissue uptake dose at 72 h (Avg % ID, S. Intestine, 72 hrs) of the same molecule?
Answer: Its tissue uptake dose at 72 h is 0.15 ± 0.02 %ID.

Question: And the tissue uptake dose at […] (Avg % ID, Spleen, 15 min)?
Answer: Its tissue uptake dose at […] is 0.1 ± 0.02 %ID.

Question: And the tissue uptake dose at 0.5 h (Avg % ID, Spleen, 30 min)?
Answer: The tissue uptake dose at 0.5 h was 0.08 ± 0.03 %ID.

Question: And the tissue uptake dose at 48 h (Avg % ID, Spleen, 48 hrs)?
Answer: The tissue uptake dose at 48 h was 0.01 ± 0.01 %ID.

Question: And the tissue uptake dose at 72 h (Avg % ID, Spleen, 72 hrs)?
Answer: The tissue uptake dose at 72 h was 0.01 ± 0.01 %ID.

Question: And the tissue uptake dose at […] (Avg % ID, Stomach, 15 min)?
Answer: The tissue uptake dose at […] was 0.98 ± 0.18 %ID.

Question: What about the tissue uptake dose at 0.5 h (Avg % ID, Stomach, 30 min) of the same molecule?
Answer: The tissue uptake dose at 0.5 h was 0.65 ± 0.04 %ID.

Question: And the tissue uptake dose at 1 h (Avg % ID, Stomach, 1 hr)?
Answer: Its tissue uptake dose at 1 h is 0.52 ± 0.11 %ID.

Question: And the tissue uptake dose at 4 h (Avg % ID, Stomach, 4 hrs)?
Answer: Its tissue uptake dose at 4 h is 0.34 ± 0.23 %ID.

Question: And the tissue uptake dose at 72 h (Avg % ID, Stomach, 72 hrs)?
Answer: The tissue uptake dose at 72 h was 0.02 ± 0.01 %ID.

Question: And the tissue uptake dose at […] (Avg % ID, Tumor, 15 min)?
Answer: Its tissue uptake dose at […] is 1.92 ± 1.22 %ID.

Question: And the tissue uptake dose at 0.5 h (Avg % ID, Tumor, 30 min)?
Answer: Its tissue uptake dose at 0.5 h is 0.99 ± 0.62 %ID.

Question: What about the tissue uptake dose at 24 h (Avg % ID, Tumor, 24 hrs) of the same molecule?
Answer: Its tissue uptake dose at 24 h is 0.25 ± 0.13 %ID.

Question: And the tissue uptake dose at 48 h (Avg % ID, Tumor, 48 hrs)?
Answer: Its tissue uptake dose at 48 h is 0.08 ± 0.05 %ID.

Question: And the dose excreted at […] (Avg % ID, Urine, 15 min)?
Answer: Its dose excreted at […] is 27.9 ± 10.3%.

Question: What about the dose excreted at 0.5 h (Avg % ID, Urine, 30 min) of the same molecule?
Answer: Its dose excreted at 0.5 h is 62.6 ± 5.02%.

Question: And the dose excreted at 1 h (Avg % ID, Urine, 1 hr)?
Answer: The dose excreted at 1 h was 68.6 ± 6.96%.

Question: And the dose excreted at 4 h (Avg % ID, Urine, 4 hrs)?
Answer: The dose excreted at 4 h was 81.8 ± 3.82%.

Question: What about the dose excreted at 24 h (Avg % ID, Urine, 24 hrs) of the same molecule?
Answer: The dose excreted at 24 h was 87.2 ± 4.31%.

Question: And the dose excreted at 48 h (Avg % ID, Urine, 48 hrs)?
Answer: Its dose excreted at 48 h is 91.8 ± 4.13%.

Question: And the dose excreted at 72 h (Avg % ID, Urine, 72 hrs)?
Answer: Its dose excreted at 72 h is 92.5 ± 1.09%.

Question: And the tissue uptake at […] (Blood, 15 min)?
Answer: Its tissue uptake at […] is 5.58 ± 2.43 %ID/g.

Question: What about the tissue uptake at 1 h (Blood, 1 hr) of the same molecule?
Answer: Its tissue uptake at 1 h is 0.6 ± 0.39 %ID/g.

Question: And the tissue uptake at 48 h (Blood, 48 hrs)?
Answer: Its tissue uptake at 48 h is 0.07 ± 0.03 %ID/g.

Question: And the tissue uptake at […] (Heart, 15 min)?
Answer: The tissue uptake at […] was 2.2 ± 1.05 %ID/g.

Question: And the tissue uptake at 0.5 h (Heart, 30 min)?
Answer: The tissue uptake at 0.5 h was 0.62 ± 0.33 %ID/g.

Question: What about the tissue uptake at 4 h (Heart, 4 hrs) of the same molecule?
Answer: The tissue uptake at 4 h was 0.13 ± 0.06 %ID/g.

Question: What about the tissue uptake at 24 h (Heart, 24 hrs) of the same molecule?
Answer: The tissue uptake at 24 h was 0.05 ± 0.09 %ID/g.

Question: And the tissue uptake at […] (Kidney, 15 min)?
Answer: The tissue uptake at […] was 29 ± 14.4 %ID/g.

Question: And the tissue uptake at 0.5 h (Kidney, 30 min)?
Answer: Its tissue uptake at 0.5 h is 8.7 ± 2.8 %ID/g.

Question: And the tissue uptake at 1 h (Kidney, 1 hr)?
Answer: The tissue uptake at 1 h was 5.66 ± 1.33 %ID/g.

Question: And the tissue uptake at 4 h (Kidney, 4 hrs)?
Answer: The tissue uptake at 4 h was 3.18 ± 0.43 %ID/g.

Question: What about the tissue uptake at 48 h (Kidney, 48 hrs) of the same molecule?
Answer: Its tissue uptake at 48 h is 0.48 ± 0.09 %ID/g.

Question: And the tissue uptake at […] (L. Intestine, 15 min)?
Answer: The tissue uptake at […] was 8.58 ± 3.04 %ID/g.

Question: What about the tissue uptake at 0.5 h (L. Intestine, 30 min) of the same molecule?
Answer: The tissue uptake at 0.5 h was 4.33 ± 0.44 %ID/g.

Question: And the tissue uptake at 1 h (L. Intestine, 1 hr)?
Answer: The tissue uptake at 1 h was 4.29 ± 2.55 %ID/g.

Question: What about the tissue uptake at 4 h (L. Intestine, 4 hrs) of the same molecule?
Answer: The tissue uptake at 4 h was 10.3 ± 2.7 %ID/g.

Question: And the tissue uptake at 24 h (L. Intestine, 24 hrs)?
Answer: Its tissue uptake at 24 h is 2.35 ± 0.43 %ID/g.

Question: What about the tissue uptake at 48 h (L. Intestine, 48 hrs) of the same molecule?
Answer: The tissue uptake at 48 h was 0.81 ± 0.2 %ID/g.

Question: What about the tissue uptake at 72 h (L. Intestine, 72 hrs) of the same molecule?
Answer: Its tissue uptake at 72 h is 0.45 ± 0.04 %ID/g.

Question: What about the tissue uptake at […] (Liver, 15 min) of the same molecule?
Answer: Its tissue uptake at […] is 2.03 ± 0.85 %ID/g.

Question: And the tissue uptake at 0.5 h (Liver, 30 min)?
Answer: Its tissue uptake at 0.5 h is 0.7 ± 0.21 %ID/g.

Question: And the tissue uptake at 72 h (Liver, 72 hrs)?
Answer: The tissue uptake at 72 h was 0.07 ± 0.02 %ID/g.

Question: What about the tissue uptake at 0.5 h (Lung, 30 min) of the same molecule?
Answer: The tissue uptake at 0.5 h was 0.94 ± 0.28 %ID/g.

Question: What about the tissue uptake at 48 h (Lung, 48 hrs) of the same molecule?
Answer: The tissue uptake at 48 h was 0.06 ± 0.02 %ID/g.

Question: And the tissue uptake at 72 h (Lung, 72 hrs)?
Answer: The tissue uptake at 72 h was 0.02 ± 0.02 %ID/g.

Question: And the tissue uptake at […] (Muscle, 15 min)?
Answer: Its tissue uptake at […] is 1.3 ± 0.6 %ID/g.

Question: And the tissue uptake at 0.5 h (Muscle, 30 min)?
Answer: Its tissue uptake at 0.5 h is 0.32 ± 0.12 %ID/g.

Question: And the tissue uptake at 1 h (Muscle, 1 hr)?
Answer: The tissue uptake at 1 h was 0.08 ± 0.07 %ID/g.

Question: What about the tissue uptake at […] (Pancreas, 15 min) of the same molecule?
Answer: The tissue uptake at […] was 54.3 ± 9.7 %ID/g.

Question: And the tissue uptake at 0.5 h (Pancreas, 30 min)?
Answer: The tissue uptake at 0.5 h was 27.9 ± 3.44 %ID/g.

Question: And the tissue uptake at 4 h (Pancreas, 4 hrs)?
Answer: The tissue uptake at 4 h was 16.6 ± 4.43 %ID/g.

Question: What about the tissue uptake at 48 h (Pancreas, 48 hrs) of the same molecule?
Answer: Its tissue uptake at 48 h is 0.77 ± 0.44 %ID/g.

Question: What about the tissue uptake at 72 h (Pancreas, 72 hrs) of the same molecule?
Answer: Its tissue uptake at 72 h is 0.23 ± 0.08 %ID/g.

Question: And the tissue uptake at 0.5 h (S. Intestine, 30 min)?
Answer: The tissue uptake at 0.5 h was 5.16 ± 1.06 %ID/g.

Question: And the tissue uptake at 1 h (S. Intestine, 1 hr)?
Answer: Its tissue uptake at 1 h is 6.8 ± 1.81 %ID/g.

Question: What about the tissue uptake at 4 h (S. Intestine, 4 hrs) of the same molecule?
Answer: Its tissue uptake at 4 h is 2.24 ± 0.35 %ID/g.

Question: What about the tissue uptake at 48 h (S. Intestine, 48 hrs) of the same molecule?
Answer: Its tissue uptake at 48 h is 0.25 ± 0.06 %ID/g.

Question: What about the tissue uptake at 72 h (S. Intestine, 72 hrs) of the same molecule?
Answer: Its tissue uptake at 72 h is 0.12 ± 0.02 %ID/g.

Question: What about the tissue uptake at […] (Spleen, 15 min) of the same molecule?
Answer: Its tissue uptake at […] is 2.21 ± 0.8 %ID/g.

Question: What about the tissue uptake at 0.5 h (Spleen, 30 min) of the same molecule?
Answer: Its tissue uptake at 0.5 h is 0.83 ± 0.26 %ID/g.

Question: And the tissue uptake at […] (Stomach, 15 min)?
Answer: The tissue uptake at […] was 3.3 ± 1.99 %ID/g.

Question: And the tissue uptake at 0.5 h (Stomach, 30 min)?
Answer: Its tissue uptake at 0.5 h is 1.82 ± 0.44 %ID/g.

Question: And the tissue uptake at 1 h (Stomach, 1 hr)?
Answer: Its tissue uptake at 1 h is 1.99 ± 0.24 %ID/g.

Question: What about the tissue uptake at 72 h (Stomach, 72 hrs) of the same molecule?
Answer: Its tissue uptake at 72 h is 0.05 ± 0.02 %ID/g.

Question: What about the tissue uptake at 0.5 h (Tumor, 30 min) of the same molecule?
Answer: Its tissue uptake at 0.5 h is 4.58 ± 0.53 %ID/g.

Question: And the tissue uptake at 4 h (Tumor, 4 hrs)?
Answer: The tissue uptake at 4 h was 1.78 ± 1.09 %ID/g.

Question: What about the tissue uptake at 48 h (Tumor, 48 hrs) of the same molecule?
Answer: The tissue uptake at 48 h was 0.68 ± 0.24 %ID/g.

Question: What about the tissue uptake at 72 h (Tumor, 72 hrs) of the same molecule?
Answer: Its tissue uptake at 72 h is 0.34 ± 0.1 %ID/g.

Question: And the dose excreted at 24 h (excretion through the hepatobiliary pathway, 24 hours p.i.)?
Answer: The dose excreted at 24 h was 8.5%.

— patent US20060067886A1, “Gastrin receptor-avid peptide conjugates” (priority 1997, published 2006)
